The results in this text go back to patent US20240200044, “EVOLUTION OF TALENS” (President and Fellows of Harvard College, published 2024).

Data set [1] has as its target omega-Zif268-DBD fusion (Mus musculus, UniProt P08046 SEQ:103-190). Briefly: one_hybrid; pIII-luciferase induction, site at -62, E. coli.
Data set [2] has as its target ATM-L-directed TALE-omega K59E (synthetic construct, K59E). Description: one_hybrid; versus canonical ATM-L TALE. The settings on record: tags: N-terminal FLAG-NLS, C-terminal RNAP omega.

B1: Zif268 consensus site (dsDNA)
DNA 1: GCGTGGGCG
DNA 2: CGCCCACGC
Molecule B1 returned a binding signal in data set [1] of no less than 10 fold.

B2: ATM left half-site 5'A (dsDNA)
DNA 1: AGAATTGGGATGCTGTTT
DNA 2: AAACAGCATCCCAATTCT
modifications: [1 (T>A)]
In data set [2], B2 showed a binding signal of 2 fold increase.

B3: ATM left half-site on-target (dsDNA)
DNA 1: TGAATTGGGATGCTGTTT
DNA 2: AAACAGCATCCCAATTCA
As to B3, the binding signal in data set [2] is 1.5 fold increase.
